Target: recombinant full-length human Tau (Tau-441, (2N4R)) (human) (UniProt P10636)
Experiment: indirect ELISA, plate coated with recombinant full-length human Tau at 3 µg/ml

EC50: 15 nM
B1: NI-502.4P3 (antibody, V domains shown)
VH: EVQLVQSGAEVKKPGESLKISCKVSGYDFSKYWIGWVRQMPGKGLEWMGLIYPGDSDTRYSPSLEGQVSISADKSISAAYLQFSSLKASDSAMYYCVRKGYSAYLGGWFDPWGQGTLVTVSS
VL: DIQLTQSPDSLAASLGERVTINCRSSQNIFYNSNNKNFLAWYQQKAGQSPKLLIYWASTRESGVPDRFSGSGSGTDFTLTISGLQAGDVAVYFCQQYFTDAPTFGGGTKVEIK

Source: US20240101654A1
